Reference: publication PMC7954794, “Protein context shapes the specificity of SH3 domain-mediated interactions in vivo” (Nature Communications, 2021)

B1: YNL307C (protein, UniProt P21965 2-375, looked up)
Protein kinase MCK1: STEEQNGVPLQRGSEFIADDVTSNKSNNTRRMLVKEYRKIGRGAFGTVVQAYLTQDKKNWLGPFAIKKVPAHTEYKSRELQILRIADHPNIVKLQYFFTHLSPQDNKVYQHLAMECLPETLQIEINRYVTNKLEMPLKHIRLYTYQIARGMLYLHGLGVCHRDIKPSNVLVDPETGVLKICDFGSAKKLEHNQPSISYICSRFYRAPELIIGCTQYTTQIDIWGLGCVMGEMLIGKAIFQGQEPLLQLREIAKLLGPPDKRFIFFSNPAYDGPLFSKPLFSGSSQQRFEKYFGHSGPDGIDLLMKILVYEPQQRLSPRRILAHQFFNELRNDDTFLPRGFTEPIKLPNLFDFNDFELQILGEFADKIKPTKVAE
B2: YNL229C (protein, UniProt P23202 2-354, looked up)
Transcriptional regulator URE2: MNNNGNQVSNLSNALRQVNIGNRNSNTTTDQSNINFEFSTGVNNNNNNNSSSNNNNVQNNNSGRNGSQNNDNENNIKNTLEQHRQQQQAFSDMSHVEYSRITKFFQEQPLEGYTLFSHRSAPNGFKVAIVLSELGFHYNTIFLDFNLGEHRAPEFVSVNPNARVPALIDHGMDNLSIWESGAILLHLVNKYYKETGNPLLWSDDLADQSQINAWLFFQTSGHAPMIGQALHFRYFHSQKIASAVERYTDEVRRVYGVVEMALAERREALVMELDTENAAAYSAGTTPMSQSRFFDYPVWLVGDKLTIADLAFVPWNNVVDRIGINIKIEFPEVYKWTKHMMRRPAVIKALRGE
B3: YML035C (protein, UniProt P15274 1-810, looked up)
AMP deaminase: MDNQATQRLNDLSLEPAPSHDEQDGSGLVIDIDQRKIGDEQAGVVVDDETPPLEQQDSHESLAADSRNANFSYHENQQLLENGTKQLALDEHDSHSAILEQPSHSTNCSSSNIAAMNKGHDSADHASQNSGGKPRTLSASAQHILPETLKSFAGAPVVNKQVRTSASYKMGMLADDASQQFLDDPSSELIDLYSKVAECRNLRAKYQTISVQNDDQNPKNKPGWVVYPPPPKPSYNSDTKTVVPVTNKPDAEVFDFTKCEIPGEDPDWEFTLNDDDSYVVHRSGKTDELIAQIPTLRDYYLDLEKMISISSDGPAKSFAYRRLQYLEARWNLYYLLNEYQETSVSKRNPHRDFYNVRKVDTHVHHSACMNQKHLLRFIKHKLRHSKDEKVIFRDGKLLTLDEVFRSLHLTGYDLSIDTLDMHAHKDTFHRFDKFNLKYNPIGESRLREIFLKTNNYIKGTYLADITKQVIFDLENSKYQNCEYRISVYGRSLDEWDKLASWVIDNKVISHNVRWLVQIPRLYDIYKKTGIVQSFQDICKNLFQPLFEVTKNPQSHPKLHVFLQRVIGFDSVDDESKVDRRFHRKYPKPSLWEAPQNPPYSYYLYYLYSNVASLNQWRAKRGFNTLVLRPHCGEAGDPEHLVSAYLLAHGISHGILLRKVPFVQYLYYLDQVGIAMSPLSNNALFLTYDKNPFPRYFKRGLNVSLSTDDPLQFSYTREPLIEEYSVAAQIYKLSNVDMCELARNSVLQSGWEAQIKKHWIGKDFDKSGVEGNDVVRTNVPDIRINYRYDTLSTELELVNHFANFKRTIEEK
B4: YNL106C (protein, UniProt P50942 1-1183, looked up)
Polyphosphatidylinositol …: MKILLSKQQTRKIAIVSETHGLVFRPINSKNSRRSTCAVELVPKAELNGNGFRRLSNHEIYGFIGLIEIEGLMFIATITGKSKVAQPIPNKTVNKIYAVDFFCLNNSKWDFMDIDSSGYPIVTNDGDFAISSPPSISTHSSRSSLRSSSSRSLNAQEQAPKHPCHELRKLLSNGSFYYSTDFDLTCTLQKRGFTEHSLSFDDFDREFMWNSFLMDEIITYRDRLDVTAKELLDQRGFLTTVIRGFAETIFSYINRLKVGLTIISRQSWKRAGTRFNARGIDDDGHVANFVETEMIMYSSQYCYAFTQIRGSLPIFWEQDTSLISPKIQITRSVEATQPTFDEHFIRLFKKYGPVHIINLLSTKSSEIQLSRRYKEQLKNSEKMKIGRDVFLTSFDFHRETSQDGFAAASRIIPKIRNTILDAGYFSYDVKEGRLISEQDGVFRTNCLDCLDRTNLIQQTISLAVFKLFLEDFRLVKPSSFIDDNEFVQKVNALWADNGDQISQIYTGTNALKSSYSRKGKMSFSGALSDATKSVSRMYINNFVDKGKQQNIDTLLGKLPHQQVVELYDPICEYVNERLLESEEKFTTHSNINLFVGTFNVNGNSRRADLSKWLFPIGDKFKPDVVVLGLQEVIELTAGSILNADYTKSSFWETMVTDCLNQYEEKYLLLRVEQMSSLLILFFARSDRAYNIKEVGGSTKKTGFGGITGNKGAVAIRFDYGATSFCFVNTHLSAGASNIDERRNDYNNIYRNITFPRSKTIPHHDSLFWLGDLNYRITLTNDEVRRELRAQKDGYIDRLLQYDQLTQEINEGVVFQGFKEPTLQFRPTYKYDYGTDNYDTSEKARTPSWTDRIIYKGENLHPLAYSDAPLKISDHKPVYAAYRANVKFVDEKEKLNLVEKLYAEYKNTHPEALTTGPDELSHARMEKQKESIPLDATVQSAGIKLIDLDDTSSCVSPLLSGPSPQPSVVGPGGLSNVSPDKSKLNVLPPPPPTSRHNKEPSSKLLSPTKEISIVSVSPRKGESNLPALERHSTPKPLPPVPALSLSKPVSLQKSSSELQHAKETIDNGKIVPRPCPPIRRKSSTAPDEISTSTKNSGVSTTEDPEPAKASTKPEKPPVVKKPHYLSVAANKLNTSQEHSIKVSPSNSKSEEELPCKKKSKPKVPAKNPELEKLSVHPLKPCDPN
B5: YNL084C (protein, UniProt P39013 1-349, looked up)
Actin cytoskeleton-regulatory …: MPKLEQFEIKKYWQIFSGLKPIENKVNHDQVLPILYNSKLDSSVLNKIWFLADIDDDDNLDFEEFVICMRLIFDMVNKNISSVPDELPDWLIPGSKVNLIKERKKRKQIENADLPPKKEIKVDWYMSPDDLNQYEKIYNSCAKLTDGTITFNELSTKLSTKFFNISKTDLNKVWSLINPQNLPSIDRDPTFYFIHCLRQRNDLGAEIPASLPNSLAEVCNKKQLSYDLRSSQPPTKRKEEANEVDNLRDNGQNSSSDSSGSNVLSNEDSIKQKYASLTDDQVANMREQLEGLLNYKKSEKTQGGSKLSKRINIRSITDDLDNIEQQVEVLENYLNNKRHELQALQAEIN

system: ABP1; experiment: DHFR-PCA on solid medium, bait ABP1 (Fig. 1B); type: cell-based, Saccharomyces cerevisiae; conditions: bait ABP1, label = prey; 2-4 replicates
Excerpt: Supplement 41467_2021_21873_MOESM8_ESM.xlsx, sheet "Fig1B" | column: medsize; medrep; Ratio; Score

Molecule	medrep (log2 median colony size normalized to plate background, PCA score)
B1	1.521
B2	1.889
B3	3.81
B4	3.9733
B5	4.13

system: 575 putative partners (preys) of 22 WT SH3-containing proteins; experiment: DHFR-PCA on solid medium, WT and SH3-deleted baits (Fig. 1B); type: cell-based, Saccharomyces cerevisiae; parameters: key to Score: 0: SH3-independent; 1: SH3-dependent PPIs; 2: SH3-inhibited PPIs; conditions: bait SLA1-2, DHFR-PCA, label = prey; Replicates 4 (2 for YCR009C, YDR388W)
Excerpt: To assess the requirement of SH3 domains for PPIs in vivo, we first measured binary interactions between 22 WT SH3-containing proteins (Supplementary Fig. 1A) as baits and 575 putative partners from their interconnected signaling networks using the dihydrofolate reductase protein–fragment complementation assay (DHFR-PCA) in the budding yeast Saccharomyces cerevisiae. About 33% (202/607) of the PPIs detected were described before, mostly by direct methods (Supplementary Fig. 1B, C)[11]. We repeated the experiments with baits in which the SH3s were individually replaced with a flexible linker by genome editing (SH3 domain deletion/stuffing, Fig. 1A). The stuffer DNA sequence ([…]) codes for a small flexible poly-Gly with Ser peptide ([…]) that is inspired by previous experiments[12],[13]. About a third of the SH3-containing protein interactome is qualitatively or quantitatively SH3-dependent (171 PPIs out of 607, Fig. 1B and Supplementary Fig. 1B, C). We validated the vast majority of the quantitative changes in low-throughput experiments and excluded that this is simply due to changes in protein abundance in most cases (Supplementary Fig. 1D–G). SH3-binding motifs[14] are more frequent in the SH3-dependent PPI partners when compared to sequences from random proteins, SH3-independent PPI partners or PPI partners that are stronger or gained following SH3 deletions (p values = 1.5 × 10^−17, 0.0038 and 2.1 × 10^−08, respectively; Mann–Whitney test, one-tailed, Fig. 1C). The changes we measure are therefore enriched for PPIs that depend on the direct interactions of the domains with the PPI partners.
The complete list of strains, primers, and gRNAs used in this study can be found in Supplementary Tables 1–3. All constructed yeast strains were validated by polymerase chain reaction (PCR) and confirmed by Sanger sequencing of the locus of interest. Bait strains for the DHFR-PCA experiments were constructed as follows. The genes of interest were fused at their genomic 3′ end by replacing the stop codon with a linker ([…]), the DHFR F[1,2] followed by a smaller linker (GGGGS), a 1× FLAG tag ([…]) and the NATMX4 resistance cassette via homologous recombination (all amplified from pAG25-DHFR[1,2]-linker-FLAG). The set of 615 prey strains (DHFR F[3] fusions in the BY4742 background) were retrieved from the Yeast Protein Interactome Collection[43] with the exception of 73 that were reconstructed (Supplementary Tables 1 and 2). Knockout strains were taken from the yeast knockout collection except for ABP1, BEM1, BZZ1, and SLA1, which were reconstructed by replacing the ORFs with the NATMX4 resistance cassette by homologous recombination in the BY4741 background.
Yeast SH3 domain genomic sequences were replaced by CRISPR–Cas9 genome editing. Each SH3 domain (as defined by the SMART database V8.0 except for Ysc84 SH3 (as defined by PROSITE), see Source Data for all SH3 sequences and Supplementary Table 1 for primers used) was specifically targeted by one gRNA[46]. Yeast competent cells were co-transformed with a pCAS plasmid (Addgene plasmid 60847[47]) expressing both the gRNA of interest and Streptococcus pyogenes Cas9[46] and a donor DNA sequence (stuffer) with 60 bp homology arms surrounding the SH3 DNA sequence. The Stuffer DNA was either PCR amplified or digested from a plasmid. The stuffer DNA sequence ([…]) codes for a small flexible linker ([…]) inspired by protein linkers used in structural biology[12],[13]. This type of linker is frequently used for fusing proteins without affecting the structure of the linked proteins.
The overall DHFR-PCA pipeline is based on Tarassov et al.[43] and the procedures have also been published as a visualized protocol. The screens were performed with robotically manipulated pin tools (BM5-SC1, S&P Robotics Inc.). First, the preys were cherry-picked from 96-well plates to omnitrays in a 384 format on YPD + HPH solid media. […]

Molecule	medrep (log2 median colony size normalized to plate background, PCA score)
B1	1.966
B2	1.546
B3	2.073
B4	1.813

same assay, conditions: bait SLA1-2, label = prey

Molecule	Score
B1	1
B2	1
B3	1
B4	1

same assay, conditions: bait SLA1-2, label = prey; only significant differences shown; PPIs completely lost have a ratio of 0.1, gained PPIs 2.5

Molecule	Ratio (SH3-deleted/WT medrep)
B1	0.1
B2	0.1
B3	0.1
B4	0.1

same assay, conditions: bait SLA1-3, DHFR-PCA, label = prey; Replicates 4 (2 for YCR009C, YDR388W, YIL033C)

Molecule	medrep (log2 median colony size normalized to plate background, PCA score)
B1	1.966
B2	1.546
B3	2.073
B4	1.813
B5	4.605

same assay, conditions: bait SLA1-3, label = prey

Molecule	Score
B1	0
B2	0
B3	0
B4	1
B5	0

same assay, conditions: bait SLA1-3, label = prey; only significant differences shown; PPIs completely lost have a ratio of 0.1, gained PPIs 2.5

Molecule	Ratio (SH3-deleted/WT medrep)
B4	0.1
